Assays:
Assay in all cases: pull-down; amylose pulldown, ORC with MBP-tagged Orc4 as bait; 0.5 uM ScORC, 0.5 uM 84 bp ARS1 dsDNA, 1 uM ScCdc6, 10 uM ScMcm7 (titrations 1.5, 5, 10 uM), 2 mM ATPγS; 25 mM HEPES pH 7.5, 300 mM potassium acetate, 10 mM magnesium acetate, 1 mM DTT; on ice; maltose elution, Coomassie-stained SDS-PAGE
Settings in all cases: both partners purified
[1] = biological target: T1, ScORC·DNA·Cdc6 with MBP-tagged ORC holding Orc6 ΔCBN (Orc6Δ1-120), ORC phosphorylated by CDK (S. cerevisiae, UniProt P54784 1-914; P32833 1-620; P54790 1-616; P54791 1-529; P50874 1-479; P38826 …, ORC treated with CDK; phosphorylated sites not printed | ORC treated with CDK; phosphorylated sites not given)
T1 construct: Orc1, S. cerevisiae, wild type; Orc2, S. cerevisiae, wild type; Orc3, S. cerevisiae, wild type; Orc4, S. cerevisiae, wild type; Orc5, S. cerevisiae, wild type; Orc6, S. cerevisiae, truncation Orc6Δ1-120 (lacks the N-terminal cyclin box fold); Cdc6, S. cerevisiae, wild type; ORC phosphorylated by CDK before assembly with DNA, Cdc6 and ATPγS; also called Orc6 ΔCBN, CDK; Orc6^ΔN120; source: MBP-ORC: …

[2] = biological target: T2, ScORC·DNA·Cdc6 with MBP-tagged ORC holding Orc6 ΔCBN/Δlinker (Orc6Δ1-269), ORC dephosphorylated with λ … (S. cerevisiae, UniProt P54784 1-914; P32833 1-620; P54790 1-616; P54791 1-529; P50874 1-479; P38826 …, ORC treated with λ phosphatase)
T2 construct: Orc1, S. cerevisiae, wild type; Orc2, S. cerevisiae, wild type; Orc3, S. cerevisiae, wild type; Orc4, S. cerevisiae, wild type; Orc5, S. cerevisiae, wild type; Orc6, S. cerevisiae, truncation Orc6Δ1-269 (lacks the N-terminal cyclin box fold and the flexible linker); Cdc6, S. cerevisiae, wild type; ORC dephosphorylated before assembly with DNA, Cdc6 and ATPγS; also called Orc6 ΔCBN/Δlinker, λ …

[3] = biological target: T3, ScORC·DNA·Cdc6 with MBP-tagged ORC (full-length Orc6), ORC dephosphorylated with λ phosphatase (S. cerevisiae, UniProt P54784 1-914; P32833 1-620; P54790 1-616; P54791 1-529; P50874 1-479; P38826 …, ORC treated with λ phosphatase | ORC treated with λ phosphatase)
T3 construct: Orc1, S. cerevisiae, wild type; Orc2, S. cerevisiae, wild type; Orc3, S. cerevisiae, wild type; Orc4, S. cerevisiae, wild type; Orc5, S. cerevisiae, wild type; Orc6, S. cerevisiae, wild type; Cdc6, S. cerevisiae, wild type; ORC (10 uM) dephosphorylated with 16.7 units/uL λ phosphatase, 10 min, 30 °C, before assembly with DNA, Cdc6 and ATPγS; also called dephosphorylated MBP-ORC·DNA·Cdc6; source: …

[4] = biological target: T4, ScORC·DNA·Cdc6 with MBP-tagged ORC holding Orc6 ΔCBN/Δlinker (Orc6Δ1-269), ORC phosphorylated by CDK (S. cerevisiae, UniProt P54784 1-914; P32833 1-620; P54790 1-616; P54791 1-529; P50874 1-479; P38826 …, ORC treated with CDK; phosphorylated sites not given)
T4 construct: Orc1, S. cerevisiae, wild type; Orc2, S. cerevisiae, wild type; Orc3, S. cerevisiae, wild type; Orc4, S. cerevisiae, wild type; Orc5, S. cerevisiae, wild type; Orc6, S. cerevisiae, truncation Orc6Δ1-269 (lacks the N-terminal cyclin box fold and the flexible linker); Cdc6, S. cerevisiae, wild type; ORC phosphorylated by CDK before assembly with DNA, Cdc6 and ATPγS; also called Orc6 ΔCBN/Δlinker, …

[5] = biological target: T5, ScORC·DNA·Cdc6 with MBP-tagged ORC holding Orc6 ΔCBN/Δlinker (Orc6Δ1-269), ORC untreated (S. cerevisiae, UniProt P54784 1-914; P32833 1-620; P54790 1-616; P54791 1-529; P50874 1-479; P38826 …)
T5 construct: Orc1, S. cerevisiae, wild type; Orc2, S. cerevisiae, wild type; Orc3, S. cerevisiae, wild type; Orc4, S. cerevisiae, wild type; Orc5, S. cerevisiae, wild type; Orc6, S. cerevisiae, truncation Orc6Δ1-269 (lacks the N-terminal cyclin box fold and the flexible linker); Cdc6, S. cerevisiae, wild type; also called Orc6^ΔN269; source: MBP-ORC: High5 insect cells, purified (no TEV cleavage); Cdc6: …

Measured: binding result

B1: S. cerevisiae Mcm7 (ScMcm7) (natural protein, UniProt P38132 1-845, looked up)
chain: MSAALPSIQLPVDYNNLFNEITDFLVTFKQDTLSSDATRNENEDENLDAENIEQHLLEKGPKYMAMLQKVANRELNSVIIDLDDILQYQNEKFLQGTQADDLVSAIQQNANHFTELFCRAIDNNMPLPTKEIDYKDDVLDVILNQRRLRNERMLSDRTNEIRSENLMDTTMDPPSSMNDALREVVEDETELFPPNLTRRYFLYFKPLSQNCARRYRKKAISSKPLSVRQIKGDFLGQLITVRGIITRVSDVKPAVEVIAYTCDQCGYEVFQEVNSRTFTPLSECTSEECSQNQTKGQLFMSTRASKFSAFQECKIQELSQQVPVGHIPRSLNIHVNGTLVRSLSPGDIVDVTGIFLPAPYTGFKALKAGLLTETYLEAQFVRQHKKKFASFSLTSDVEERVMELITSGDVYNRLAKSIAPEIYGNLDVKKALLLLLVGGVDKRVGDGMKIRGDINVCLMGDPGVAKSQLLKAICKISPRGVYTTGKGSSGVGLTAAVMKDPVTDEMILEGGALVLADNGICCIDEFDKMDESDRTAIHEVMEQQTISISKAGINTTLNARTSILAAANPLYGRYNPRLSPLDNINLPAALLSRFDILFLMLDIPSRDDDEKLAEHVTYVHMHNKQPDLDFTPVEPSKMREYIAYAKTKRPVMSEAVNDYVVQAYIRLRQDSKREMDSKFSFGQATPRTLLGIIRLSQALAKLRLADMVDIDDVEEALRLVRVSKESLYQETNKSKEDESPTTKIFTIIKKMLQETGKNTLSYENIVKTVRLRGFTMLQLSNCIQEYSYLNVWHLINEGNTLKFVDDGTMDTDQEDSLVSTPKLAPQTTASANVSAQDSDIDLQDA
notes: Mcm7, S. cerevisiae; migrates as a doublet on SDS-PAGE; source: E. coli BL21 RIL, purified (HisTrap, amylose, TEV cleavage, HisTrap, gel filtration); not shown: His6, N-terminal, cleaved; MBP, N-terminal, cleaved
binds: [1] | [2] | [3] | [4] | [5]

Source: article PMC8881611, “A mechanism of origin licensing control through autoinhibition of S. cerevisiae ORC·DNA·Cdc6” (Nature Communications, 2022)
